Columns and labels:
[1] = target: R170A/R220A/Y227F/E449R mutant β-glucosidase (Pyrococcus furiosus); assay: gel filtration (Superdex 200), oligomeric state
[2] = target: the molecule itself; assay: gel filtration (Superdex 200), self-association
Procedure: (§1) The molecular weights of the parent glucosidase and the mutants were determined by gel filtration using HiLood 26/60 Suuperdex 200 as the column, a 50 mM tris-hydrochloride (pH 8) and 150 mM sodium chloride as the buffer. The enzymes prepared in Example 2, Reference Example 1, and Example 9 were each added to the column and eluted with the buffer at a flow rate of 2 mL/min. The enzyme was detected by measuring absorbance at 280 nm. Ovoalbumin (44 kDa), conalbumin (75 kDa), aldolase (158 kDa), and ferritin (440 kDa) were used as molecular weight markers, and a calibration curve was drawn based on the elution time of each enzyme component. The molecular weights measured by gel filtration (observed molecular weights: kDa) and molecular weights estimated from the amino acid primary structures (estimated molecular weights: kDa) are summarized in Table 8.

[3] = target: the molecule itself; assay: gel filtration (Superdex 200), oligomeric state
Procedure: as §1

[4] = target: the molecule itself; assay: blue-native PAGE, self-association
Procedure: Whether the parent β-glucosidase and our β-glucosidases, R170A mutant, R170A/R220A mutant, and R170A/R220A/Y227F mutant, form stable tetramers or not was investigated by blue-native PAGE.
In the blue-native PAGE, 3-12% Native-PAGE Bis-Tris Gel (Invitrogen Corporation) was used. Electrophoresis samples were prepared by dissolving 1 μg of each of the parent β-glucosidase, R170A mutant, R170A/R220A mutant, and R170A/R220A/Y227F mutant in a sample buffer (50 mM imidazole (pH 7.0), 50 mM NaCl, 5 mM 6-aminohexanoic acid, 0.5% Coomassie G250, and 0.5% DDM). NativeMark protein standard (Invitrogen Corporation) was used as molecular weight markers. In the electrophoresis, 50 mM Tricine, 7.5 mM imidazole (pH 7.0), and Coomassie G250 were added to […], whereas 25 mM imidazole (pH 7.0) was added to the cathode side. The electrophoresis was performed at a constant voltage of 150 V for 100 minutes. After fixation of bands, G-250 was decolorized.

Row | Binder | binding result [2] | Observed molecular weight (kDa) [3] | also measured
1 | R170A/R220A/Y227F/E449R mutant β-glucosidase (enzyme) AKFPKNFMFGYSWSGFQFEMGLPGSEVESDWWVWVHDKENIASGLVSGDLPENGPAYWHLYKQDHDIAEKLGMDCIRGGIEWARIFPKPTFDVKVDVEKDEEGNIISVDVPESTIKELEKIANMEALEHYRKIYSDWKERGKTFILNLYHWPLPLWIHDPIAVRKLGPDAAPAGWLDEKTVVEFVKFAAFVAYHLDDLVDMWSTMNEPNVVYNQGYINLASGFPPGFLSFEAAEKAKFNLIQAHIGAYDAIKEYSEKSVGVIYAFAWHDPLAEEYKDEVEEIRKKDYEFVTILHSKGKLDWIGVNYYSRLVYGAKDGHLVPLPGYGFMSERGGFAKSGRPASDFGWEMYPEGLENLLKYLNNAYELPMIITENGMADAADRYRPHYLVSHLKAVYNAMKEGADVRGYLHWSLTDNYEWAQGFRMRFGLVYVDFETKKRYLRPSALVFRRIATQKEIPEELAHLADLKFVTRK | – | – | Observed molecular weight (kDa) [1]: 92 kDa
2 | R170A/R220A/Y227F/R448E mutant β-glucosidase (enzyme, start methionine not included; Estimated to be monomeric) AKFPKNFMFGYSWSGFQFEMGLPGSEVESDWWVWVHDKENIASGLVSGDLPENGPAYWHLYKQDHDIAEKLGMDCIRGGIEWARIFPKPTFDVKVDVEKDEEGNIISVDVPESTIKELEKIANMEALEHYRKIYSDWKERGKTFILNLYHWPLPLWIHDPIAVRKLGPDAAPAGWLDEKTVVEFVKFAAFVAYHLDDLVDMWSTMNEPNVVYNQGYINLASGFPPGFLSFEAAEKAKFNLIQAHIGAYDAIKEYSEKSVGVIYAFAWHDPLAEEYKDEVEEIRKKDYEFVTILHSKGKLDWIGVNYYSRLVYGAKDGHLVPLPGYGFMSERGGFAKSGRPASDFGWEMYPEGLENLLKYLNNAYELPMIITENGMADAADRYRPHYLVSHLKAVYNAMKEGADVRGYLHWSLTDNYEWAQGFRMRFGLVYVDFETKKRYLRPSALVFEEIATQKEIPEELAHLADLKFVTRK | no binding | 70 kDa | –
3 | R170A/R220A/Y227F/E459G mutant β-glucosidase (enzyme, start methionine not included; Estimated to be monomeric) AKFPKNFMFGYSWSGFQFEMGLPGSEVESDWWVWVHDKENIASGLVSGDLPENGPAYWHLYKQDHDIAEKLGMDCIRGGIEWARIFPKPTFDVKVDVEKDEEGNIISVDVPESTIKELEKIANMEALEHYRKIYSDWKERGKTFILNLYHWPLPLWIHDPIAVRKLGPDAAPAGWLDEKTVVEFVKFAAFVAYHLDDLVDMWSTMNEPNVVYNQGYINLASGFPPGFLSFEAAEKAKFNLIQAHIGAYDAIKEYSEKSVGVIYAFAWHDPLAEEYKDEVEEIRKKDYEFVTILHSKGKLDWIGVNYYSRLVYGAKDGHLVPLPGYGFMSERGGFAKSGRPASDFGWEMYPEGLENLLKYLNNAYELPMIITENGMADAADRYRPHYLVSHLKAVYNAMKEGADVRGYLHWSLTDNYEWAQGFRMRFGLVYVDFETKKRYLRPSALVFREIATQKEIPEGLAHLADLKFVTRK | no binding | 50 kDa | –
4 | parent β-glucosidase (Pyrococcus furiosus) (enzyme, Recombinant, expressed in E. coli; Homotetramer in crystal and in solution; also called wild-type; parent glucosidase) AKFPKNFMFGYSWSGFQFEMGLPGSEVESDWWVWVHDKENIASGLVSGDLPENGPAYWHLYKQDHDIAEKLGMDCIRGGIEWARIFPKPTFDVKVDVEKDEEGNIISVDVPESTIKELEKIANMEALEHYRKIYSDWKERGKTFILNLYHWPLPLWIHDPIAVRKLGPDRAPAGWLDEKTVVEFVKFAAFVAYHLDDLVDMWSTMNEPNVVYNQGYINLRSGFPPGYLSFEAAEKAKFNLIQAHIGAYDAIKEYSEKSVGVIYAFAWHDPLAEEYKDEVEEIRKKDYEFVTILHSKGKLDWIGVNYYSRLVYGAKDGHLVPLPGYGFMSERGGFAKSGRPASDFGWEMYPEGLENLLKYLNNAYELPMIITENGMADAADRYRPHYLVSHLKAVYNAMKEGADVRGYLHWSLTDNYEWAQGFRMRFGLVYVDFETKKRYLRPSALVFREIATQKEIPEELAHLADLKFVTRK | – | 237 kDa | –
5 | R170A/R220A mutant β-glucosidase (enzyme, start methionine not included; also called A170A/R220A mutant [sic]) AKFPKNFMFGYSWSGFQFEMGLPGSEVESDWWVWVHDKENIASGLVSGDLPENGPAYWHLYKQDHDIAEKLGMDCIRGGIEWARIFPKPTFDVKVDVEKDEEGNIISVDVPESTIKELEKIANMEALEHYRKIYSDWKERGKTFILNLYHWPLPLWIHDPIAVRKLGPDAAPAGWLDEKTVVEFVKFAAFVAYHLDDLVDMWSTMNEPNVVYNQGYINLASGFPPGYLSFEAAEKAKFNLIQAHIGAYDAIKEYSEKSVGVIYAFAWHDPLAEEYKDEVEEIRKKDYEFVTILHSKGKLDWIGVNYYSRLVYGAKDGHLVPLPGYGFMSERGGFAKSGRPASDFGWEMYPEGLENLLKYLNNAYELPMIITENGMADAADRYRPHYLVSHLKAVYNAMKEGADVRGYLHWSLTDNYEWAQGFRMRFGLVYVDFETKKRYLRPSALVFREIATQKEIPEELAHLADLKFVTRK | – | – | binding result [4]: binds
6 | R170A/R220A/Y227F/R448G mutant β-glucosidase (enzyme, start methionine not included; Estimated to be monomeric) AKFPKNFMFGYSWSGFQFEMGLPGSEVESDWWVWVHDKENIASGLVSGDLPENGPAYWHLYKQDHDIAEKLGMDCIRGGIEWARIFPKPTFDVKVDVEKDEEGNIISVDVPESTIKELEKIANMEALEHYRKIYSDWKERGKTFILNLYHWPLPLWIHDPIAVRKLGPDAAPAGWLDEKTVVEFVKFAAFVAYHLDDLVDMWSTMNEPNVVYNQGYINLASGFPPGFLSFEAAEKAKFNLIQAHIGAYDAIKEYSEKSVGVIYAFAWHDPLAEEYKDEVEEIRKKDYEFVTILHSKGKLDWIGVNYYSRLVYGAKDGHLVPLPGYGFMSERGGFAKSGRPASDFGWEMYPEGLENLLKYLNNAYELPMIITENGMADAADRYRPHYLVSHLKAVYNAMKEGADVRGYLHWSLTDNYEWAQGFRMRFGLVYVDFETKKRYLRPSALVFGEIATQKEIPEELAHLADLKFVTRK | no binding | 63 kDa | –
7 | R170A/R220A/Y227F mutant β-glucosidase (enzyme, start methionine not included; Homodimer in crystal and by gel filtration; also called mutant (R170A/R220A/Y227F)) AKFPKNFMFGYSWSGFQFEMGLPGSEVESDWWVWVHDKENIASGLVSGDLPENGPAYWHLYKQDHDIAEKLGMDCIRGGIEWARIFPKPTFDVKVDVEKDEEGNIISVDVPESTIKELEKIANMEALEHYRKIYSDWKERGKTFILNLYHWPLPLWIHDPIAVRKLGPDAAPAGWLDEKTVVEFVKFAAFVAYHLDDLVDMWSTMNEPNVVYNQGYINLASGFPPGFLSFEAAEKAKFNLIQAHIGAYDAIKEYSEKSVGVIYAFAWHDPLAEEYKDEVEEIRKKDYEFVTILHSKGKLDWIGVNYYSRLVYGAKDGHLVPLPGYGFMSERGGFAKSGRPASDFGWEMYPEGLENLLKYLNNAYELPMIITENGMADAADRYRPHYLVSHLKAVYNAMKEGADVRGYLHWSLTDNYEWAQGFRMRFGLVYVDFETKKRYLRPSALVFREIATQKEIPEELAHLADLKFVTRK | – | 129 kDa | –
8 | R170A mutant β-glucosidase (enzyme, start methionine not included in the entry) AKFPKNFMFGYSWSGFQFEMGLPGSEVESDWWVWVHDKENIASGLVSGDLPENGPAYWHLYKQDHDIAEKLGMDCIRGGIEWARIFPKPTFDVKVDVEKDEEGNIISVDVPESTIKELEKIANMEALEHYRKIYSDWKERGKTFILNLYHWPLPLWIHDPIAVRKLGPDAAPAGWLDEKTVVEFVKFAAFVAYHLDDLVDMWSTMNEPNVVYNQGYINLRSGFPPGYLSFEAAEKAKFNLIQAHIGAYDAIKEYSEKSVGVIYAFAWHDPLAEEYKDEVEEIRKKDYEFVTILHSKGKLDWIGVNYYSRLVYGAKDGHLVPLPGYGFMSERGGFAKSGRPASDFGWEMYPEGLENLLKYLNNAYELPMIITENGMADAADRYRPHYLVSHLKAVYNAMKEGADVRGYLHWSLTDNYEWAQGFRMRFGLVYVDFETKKRYLRPSALVFREIATQKEIPEELAHLADLKFVTRK | – | – | binding result [4]: binds

Reference: US20140127759A1 (TORAY INDUSTRIES, published 2014)
